Assays:
HeLa Kyoto [1] = test: solubility in G1/S (NP-40 vs SDS abundance) (log2 ratio); higher = more soluble; conditions: cell cycle stage: G1/S
HeLa Kyoto [2] = test: melting temperature (median over replicates), in situ; higher = more thermally stable
HeLa Kyoto [3] = test: solubility change mitosis vs G1/S (difference of NP-40 vs SDS log2 ratios) (log2 ratio difference); higher = more soluble in mitosis
HeLa Kyoto [4] = test: thermal stability score vs G1/S (z-score of summed log2 fold changes over temperatures); higher = more thermally stable than in G1/S
[5] = cell cycle stage: early G1 (4.5 h after nocodazole release)
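For melting temperature (median over replicates), in situ in this document: HeLa Kyoto cells synchronized by double thymidine or nocodazole block, proteins quantified by TMT10plex mass spectrometry, three independent biological replicates.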
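For solubility change mitosis vs G1/S (difference of NP-40 vs SDS log2 ratios) in this document: synchronized HeLa Kyoto cells (double thymidine block for G1/S, nocodazole release for mitosis), protein amounts in NP-40 versus SDS lysates quantified by mass spectrometry, three biological replicates.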
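For solubility in G1/S (NP-40 vs SDS abundance) in this document: HeLa Kyoto cells arrested at G1/S by double thymidine block, proteins quantified by TMT10plex mass spectrometry in mild NP-40 versus SDS extracts, three biological replicates.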
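For thermal stability score vs G1/S (z-score of summed log2 fold changes over temperatures) in this document: synchronized HeLa Kyoto cells, proteins quantified by TMT10plex mass spectrometry, three biological replicates, mitosis taken 0.5 h after nocodazole release, G1/S directly after double thymidine block.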

**Q.** What does the source list for “MAENGDNEKMAALEAKICHQIEYYFGDFNLPRDKFLKEQIKLDEGWVPLEIMIKFNRLNRLTTDFNVIVEALSKSKAELMEISEDKTKIRRSPSKPLPEVTDEYKNDVKNRSVYIKGFPTDATLDDIKEWLEDKGQVLNIQMRRTLHKAFKGSIFVVFDSIESAKKFVETPGQKYKETDLLILFKDDYFAKKNEERKQNKVEAKLRAKQEQEAKQKLEEDAEMKSLEEKIGCLLKFSGDLDDQTCREDLHILFSNHGEIKWIDFVRGAKEGIILFKEKAKEALGKAKDANNGNLQLRNKEVTWEVLEGEVEKEALKKIIEDQQESLNKWKSKGRRFKGKGKGNKAAQPGSGKGKVQFQGKKTKFASDDEHDEHDENGATGPVKRAREETDKEEPASKQQKTENGAGDQ [SSB]”?
**A.** solubility in G1/S (log2) (HeLa Kyoto [1]): 0.66; melting temperature (HeLa Kyoto [2]; cell cycle stage: G1/S): 49.3 °C; melting temperature (HeLa Kyoto [2]; cell cycle stage: mitosis): 50.3 °C; solubility change mitosis (log2) (HeLa Kyoto [3]): -0.0733; thermal stability score (HeLa Kyoto [4]; [5]): 2.85; thermal stability score (HeLa Kyoto [4]; cell cycle stage: mitosis): 0.442

**Q.** With “MAENKGGGEAESGGGGSGSAPVTAGAAGPAAQEAEPPLTAVLVEEEEEEGGRAGAEGGAAGPDDGGVAAASSGSAQAASSPAASVGTGVAGGAVSTPAPAPASAPAPGPSAGPPPGPPASLLDTCAVCQQSLQSRREAEPKLLPCLHSFCLRCLPEPERQLSVPIPGGSNGDIQQVGVIRCPVCRQECRQIDLVDNYFVKDTSEAPSSSDEKSEQVCTSCEDNASAVGFCVECGEWLCKTCIEAHQRVKFTKDHLIRKKEDVSESVGASGQRPVFCPVHKQEQLKLFCETCDRLTCRDCQLLEHKEHRYQFLEEAFQNQKGAIENLLAKLLEKKNYVHFAATQVQNRIKEVNETNKRVEQEIKVAIFTLINEINKKGKSLLQQLENVTKERQMKLLQQQNDITGLSRQVKHVMNFTNWAIASGSSTALLYSKRLITFQLRHILKARCDPVPAANGAIRFHCDPTFWAKNVVNLGNLVIESKPAPGYTPNVVVGQVPPGTNHISKTPGQINLAQLRLQHMQQQVYAQKHQQLQQMRMQQPPAPVPTTTTTTQQHPRQAAPQMLQQQPPRLISVQTMQRGNMNCGAFQAHQMRLAQNAARIPGIPRHSGPQYSMMQPHLQRQHSNPGHAGPFPVVSVHNTTINPTSPTTATMANANRGPTSPSVTAIELIPSVTNPENLPSLPDIPPIQLEDAGSSSLDNLLSRYISGSHLPPQPTSTMNPSPGPSALSPGSSGLSNSHTPVRPPSTSSTGSRGSCGSSGRTAEKTSLSFKSDQVKVKQEPGTEDEICSFSGGVKQEKTEDGRRSACMLSSPESSLTPPLSTNLHLESELDALASLENHVKIEPADMNESCKQSGLSSLVNGKSPIRSLMHRSARIGGDGNNKDDDPNEDWCAVCQNGGDLLCCEKCPKVFHLTCHVPTLLSFPSGDWICTFCRDIGKPEVEYDCDNLQHSKKGKTAQGLSPVDQRKCERLLLYLYCHELSIEFQEPVPASIPNYYKIIKKPMDLSTVKKKLQKKHSQHYQIPDDFVADVRLIFKNCERFNEMMKVVQVYADTQEINLKADSEVAQAGKAVALYFEDKLTEIYSDRTFAPLPEFEQEEDDGEVTEDSDEDFIQPRRKRLKSDERPVHIK [TRIM33]” as the sequence, how does the “solubility in G1/S (log2)” value (HeLa Kyoto [1]) read?
**A.** 0.105

**Q.** And the melting temperature (HeLa Kyoto [2]; cell cycle stage: G1/S)?
**A.** 48.1 °C

**Q.** What about the melting temperature (HeLa Kyoto [2]; cell cycle stage: mitosis) of the same sequence?
**A.** 49.7 °C

**Q.** What about the “solubility change mitosis (log2)” value (HeLa Kyoto [3]) of the same sequence?
**A.** -0.201

**Q.** And the thermal stability score (HeLa Kyoto [4]; [5])?
**A.** 2.02

**Q.** And the thermal stability score (HeLa Kyoto [4]; cell cycle stage: mitosis)?
**A.** 4.15

**Q.** How did the “solubility in G1/S (log2)” value (HeLa Kyoto [1]) turn out when “MAENPSLENHRIKSFKNKGRDVETMRRHRNEVTVELRKNKRDEHLLKKRNVPQEESLEDSDVDADFKAQNVTLEAILQNATSDNPVVQLSAVQAARKLLSSDRNPPIDDLIKSGILPILVKCLERDDNPSLQFEAAWALTNIASGTSAQTQAVVQSNAVPLFLRLLRSPHQNVCEQAVWALGNIIGDGPQCRDYVISLGVVKPLLSFISPSIPITFLRNVTWVIVNLCRNKDPPPPMETVQEILPALCVLIYHTDINILVDTVWALSYLTDGGNEQIQMVIDSGVVPFLVPLLSHQEVKVQTAALRAVGNIVTGTDEQTQVVLNCDVLSHFPNLLSHPKEKINKEAVWFLSNITAGNQQQVQAVIDAGLIPMIIHQLAKGDFGTQKEAAWAISNLTISGRKDQVEYLVQQNVIPPFCNLLSVKDSQVVQVVLDGLKNILIMAGDEASTIAEIIEECGGLEKIEVLQQHENEDIYKLAFEIIDQYFSGDDIDEDPCLIPEATQGGTYNFDPTANLQTKEFNF [KPNA3]” was run?
**A.** 0.128

**Q.** What about the melting temperature (HeLa Kyoto [2]; cell cycle stage: G1/S) of the same sequence?
**A.** 49 °C

**Q.** And the melting temperature (HeLa Kyoto [2]; cell cycle stage: mitosis)?
**A.** 50.5 °C

**Q.** And the “solubility change mitosis (log2)” value (HeLa Kyoto [3])?
**A.** -0.0814

**Q.** What about the thermal stability score (HeLa Kyoto [4]; [5]) of the same sequence?
**A.** 1.67

**Q.** What about the thermal stability score (HeLa Kyoto [4]; cell cycle stage: mitosis) of the same sequence?
**A.** 4.62

**Q.** For “MAEPLQPDPGAAEDAAAQAVETPGWKAPEDAGPQPGSYEIRHYGPAKWVSTSVESMDWDSAIQTGFTKLNSYIQGKNEKEMKIKMTAPVTSYVEPGSGPFSESTITISLYIPSEQQFDPPRPLESDVFIEDRAEMTVFVRSFDGFSSAQKNQEQLLTLASILREDGKVFDEKVYYTAGYNSPVKLLNRNNEVWLIQKNEPTKENE [HEBP2]”, which “solubility in G1/S (log2)” value (HeLa Kyoto [1]) is on record?
**A.** 0.297

**Q.** What about the melting temperature (HeLa Kyoto [2]; cell cycle stage: G1/S) of the same sequence?
**A.** 53.1 °C

**Q.** And the melting temperature (HeLa Kyoto [2]; cell cycle stage: mitosis)?
**A.** 53.6 °C

**Q.** And the “solubility change mitosis (log2)” value (HeLa Kyoto [3])?
**A.** -0.0442

**Q.** What about the thermal stability score (HeLa Kyoto [4]; [5]) of the same sequence?
**A.** 0.153

**Q.** What about the thermal stability score (HeLa Kyoto [4]; cell cycle stage: mitosis) of the same sequence?
**A.** -0.49

**Q.** What does the source list for “MAEPQPPSGGLTDEAALSCCSDADPSTKDFLLQQTMLRVKDPKKSLDFYTRVLGMTLIQKCDFPIMKFSLYFLAYEDKNDIPKEKDEKIAWALSRKATLELTHNWGTEDDETQSYHNGNSDPRGFGHIGIAVPDVYSACKRFEELGVKFVKKPDDGKMKGLAFIQDPDGYWIEILNPNKMATLM [GLO1]”?
**A.** solubility in G1/S (log2) (HeLa Kyoto [1]): 0.117; melting temperature (HeLa Kyoto [2]; cell cycle stage: G1/S): 55.8 °C; melting temperature (HeLa Kyoto [2]; cell cycle stage: mitosis): 54.5 °C; solubility change mitosis (log2) (HeLa Kyoto [3]): 0.168; thermal stability score (HeLa Kyoto [4]; [5]): -0.959; thermal stability score (HeLa Kyoto [4]; cell cycle stage: mitosis): -4.08

**Q.** How did the “solubility in G1/S (log2)” value (HeLa Kyoto [1]) turn out when “MAEPVGKRGRWSGGSGAGRGGRGGWGGRGRRPRAQRSPSRGTLDVVSVDLVTDSDEEILEVATARGAADEVEVEPPEPPGPVASRDNSNSDSEGEDRRPAGPPREPVRRRRRLVLDPGEAPLVPVYSGKVKSSLRLIPDDLSLLKLYPPGDEEEAELADSSGLYHEGSPSPGSPWKTKLRTKDKEEKKKTEFLDLDNSPLSPPSPRTKSRTHTRALKKLSEVNKRLQDLRSCLSPKPPQGQEQQGQEDEVVLVEGPTLPETPRLFPLKIRCRADLVRLPLRMSEPLQSVVDHMATHLGVSPSRILLLFGETELSPTATPRTLKLGVADIIDCVVLTSSPEATETSQQLQLRVQGKEKHQTLEVSLSRDSPLKTLMSHYEEAMGLSGRKLSFFFDGTKLSGRELPADLGMESGDLIEVWG [NFATC2IP]” was run?
**A.** 0.318

**Q.** What about the melting temperature (HeLa Kyoto [2]; cell cycle stage: G1/S) of the same sequence?
**A.** 48.7 °C

**Q.** And the melting temperature (HeLa Kyoto [2]; cell cycle stage: mitosis)?
**A.** 51.5 °C

**Q.** What about the “solubility change mitosis (log2)” value (HeLa Kyoto [3]) of the same sequence?
**A.** -0.0384

**Q.** What about the thermal stability score (HeLa Kyoto [4]; [5]) of the same sequence?
**A.** 2.45

**Q.** What about the thermal stability score (HeLa Kyoto [4]; cell cycle stage: mitosis) of the same sequence?
**A.** 4.3

**Q.** What does the source list for “MAERKPNGGSGGASTSSSGTNLLFSSSATEFSFNVPFIPVTQASASPASLLLPGEDSTDVGEEDSFLGQTSIHTSAPQTFSYFSQVSSSSDPFGNIGQSPLTTAATSVGQSGFPKPLTALPFTTGSQDVSNAFSPSISKAQPGAPPSSLMGINSYLPSQPSSLPPSYFGNQPQGIPQPGYNPYRHTPGSSRANPYIAPPQLQQCQTPGPPAHPPPSGPPVQMYQMPPGSLPPVPSSVQSPAQQQVPARPGAPSVQVPSPFLLQNQYEPVQPHWFYCKEVEYKQLWMPFSVFDSLNLEEIYNSVQPDPESVVLGTDGGRYDVYLYDRIRKAAYWEEEPAEVRRCTWFYKGDTDSRFIPYTEEFSEKLEAEYKKAVTTNQWHRRLEFPSGETIVMHNPKVIVQFQPSSVPDEWGTTQDGQTRPRVVKRGIDDNLDEIPDGEMPQVDHLVFVVHGIGPVCDLRFRSIIECVDDFRVVSLKLLRTHFKKSLDDGKVSRVEFLPVHWHSSLGGDATGVDRNIKKITLPSIGRFRHFTNETLLDILFYNSPTYCQTIVEKVGMEINHLHALFMSRNPDFKGGVSVAGHSLGSLILFDILSNQKDLNLSKCPGPLAVANGVVKQLHFQEKQMPEEPKLTLDESYDLVVENKEVLTLQETLEALSLSEYFSTFEKEKIDMESLLMCTVDDLKEMGIPLGPRKKIANFVEHKAAKLKKAASEKKAVAATSTKGQEQSAQKTKDMASLPSESNEPKRKLPVGACVSSVCVNYESFEVGAGQVSVAYNSLDFEPEIFFALGSPIAMFLTIRGVDRIDENYSLPTCKGFFNIYHPLDPVAYRLEPMIVPDLDLKAVLIPHHKGRKRLHLELKESLSRMGSDLKQGFISSLKSAWQTLNEFARAHTSSTQLQEELEKVANQIKEEEEKQVVEAEKVVESPDFSKDEDYLGKVGMLNGGRRIDYVLQEKPIESFNEYLFALQSHLCYWESEDTALLLLKEIYRTMNISPEQPQH [SEC23IP]”?
**A.** solubility in G1/S (log2) (HeLa Kyoto [1]): 0.171; melting temperature (HeLa Kyoto [2]; cell cycle stage: G1/S): 50.5 °C; melting temperature (HeLa Kyoto [2]; cell cycle stage: mitosis): 50.3 °C; solubility change mitosis (log2) (HeLa Kyoto [3]): -0.197; thermal stability score (HeLa Kyoto [4]; [5]): -1.73; thermal stability score (HeLa Kyoto [4]; cell cycle stage: mitosis): -1.12

Reference: the supplement of paper PMC5998384
